In assay [1] the target is T1, human amylin receptor (amylin 3(a) receptor: human calcitonin receptor plus RAMP-3) (human, UniProt P30988 25-474; O60896 24-148, limits assumed).
T1 sequence (looked up) 1: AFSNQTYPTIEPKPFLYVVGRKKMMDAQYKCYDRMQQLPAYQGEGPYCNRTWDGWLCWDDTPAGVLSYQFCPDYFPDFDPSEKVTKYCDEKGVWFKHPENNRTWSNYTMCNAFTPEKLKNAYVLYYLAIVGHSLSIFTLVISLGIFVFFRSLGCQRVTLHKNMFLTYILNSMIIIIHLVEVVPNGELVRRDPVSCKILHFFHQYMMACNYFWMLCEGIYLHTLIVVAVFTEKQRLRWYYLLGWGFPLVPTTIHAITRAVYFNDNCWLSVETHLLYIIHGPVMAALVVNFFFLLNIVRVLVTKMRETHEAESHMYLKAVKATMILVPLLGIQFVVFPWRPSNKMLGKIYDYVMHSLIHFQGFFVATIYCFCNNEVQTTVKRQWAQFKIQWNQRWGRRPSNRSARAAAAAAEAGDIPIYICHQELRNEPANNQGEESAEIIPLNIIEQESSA
T1 sequence (looked up) 2: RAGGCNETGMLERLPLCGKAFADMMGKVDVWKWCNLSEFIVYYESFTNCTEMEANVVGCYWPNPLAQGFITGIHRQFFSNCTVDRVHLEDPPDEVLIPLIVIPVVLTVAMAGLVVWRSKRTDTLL
In words: cell-based or functional assay.

Assay [2] has as its target T2, human calcitonin receptor (human, UniProt P30988 25-474).
T2 sequence (looked up): T1 sequence (looked up) 1
Description: cell-based or functional assay.

Numbered stars: 1 amine (or outer) side, 2 acyl side, 3 side chain; on linkers, the order of the positions; unused ones are H or OH. Bridge positions count the residues as written; N and C are the ends. Side chains are listed from the residue outwards. Ends that are not written are not given here. * marks the point of attachment. C20 diacid = O=C(O)CCCCCCCCCCCCCCCCCCC(=O)*; γGlu = O=C(O)[C@H](CCC(=O)[*:2])N[*:1]; AEEA = NCCOCCOCC(=O)O

B1: N^ε1-[2-[2-[2-[[(4S)-4-carboxy-4-(19-carboxynonadecanoylamino)butanoyl]amino]ethoxy]ethoxy]acetyl]-[Arg17,Pro21,Pro27,Glu35]-h-amylin (peptide)
peptide: K([AEEA-γGlu-C20 diacid])CNTATCATQRLANFLRHSSPNFGAIPSSTNVGSETY-NH2
modifications: disulfide 2-7; N-terminus assumed
SMILES: CC[C@H](C)[C@H](NC(=O)[C@H](C)NC(=O)CNC(=O)[C@H](Cc1ccccc1)NC(=O)[C@H](CC(N)=O)NC(=O)[C@@H]1CCCN1C(=O)[C@H](CO)NC(=O)[C@H](CO)NC(=O)[C@H](Cc1c[nH]cn1)NC(=O)[C@H](CCCNC(=N)N)NC(=O)[C@H](CC(C)C)NC(=O)[C@H](Cc1ccccc1)NC(=O)[C@H](CC(N)=O)NC(=O)[C@H](C)NC(=O)[C@H](CC(C)C)NC(=O)[C@H](CCCNC(=N)N)NC(=O)[C@H](CCC(N)=O)NC(=O)[C@@H](NC(=O)[C@H](C)NC(=O)[C@@H]1CSSC[C@H](NC(=O)[C@@H](N)CCCCNC(=O)COCCOCCNC(=O)CC[C@H](NC(=O)CCCCCCCCCCCCCCCCCCC(=O)O)C(=O)O)C(=O)N[C@@H](CC(N)=O)C(=O)N[C@@H]([C@@H](C)O)C(=O)N[C@@H](C)C(=O)N[C@@H]([C@@H](C)O)C(=O)N1)[C@@H](C)O)C(=O)N1CCC[C@H]1C(=O)N[C@@H](CO)C(=O)N[C@@H](CO)C(=O)N[C@H](C(=O)N[C@@H](CC(N)=O)C(=O)N[C@H](C(=O)NCC(=O)N[C@@H](CO)C(=O)N[C@@H](CCC(=O)O)C(=O)N[C@H](C(=O)N[C@@H](Cc1ccc(O)cc1)C(N)=O)[C@@H](C)O)C(C)C)[C@@H](C)O
notes: also called compound 26
As for B1, the “hAmylin-R funct. EC50” value in assay [1] is 0.212 nM. For the same molecule, in assay [2], the “Ratio hCT/hAmylin funct. (hCTR EC50 against hAmylin-R EC50)” value was determined as 29.9 and the “hCTR funct. EC50” value worked out at 6.34 nM.

B2: N^ε1-[(4S)-4-carboxy-4-(19-carboxynonadecanoylamino)butanoyl]-[Arg17,Pro21,Pro27,Glu35]-h-amylin (peptide)
peptide: K([γGlu-C20 diacid])CNTATCATQRLANFLRHSSPNFGAIPSSTNVGSETY-NH2
modifications: disulfide 2-7; N-terminus assumed
SMILES: CC[C@H](C)[C@H](NC(=O)[C@H](C)NC(=O)CNC(=O)[C@H](Cc1ccccc1)NC(=O)[C@H](CC(N)=O)NC(=O)[C@@H]1CCCN1C(=O)[C@H](CO)NC(=O)[C@H](CO)NC(=O)[C@H](Cc1c[nH]cn1)NC(=O)[C@H](CCCNC(=N)N)NC(=O)[C@H](CC(C)C)NC(=O)[C@H](Cc1ccccc1)NC(=O)[C@H](CC(N)=O)NC(=O)[C@H](C)NC(=O)[C@H](CC(C)C)NC(=O)[C@H](CCCNC(=N)N)NC(=O)[C@H](CCC(N)=O)NC(=O)[C@@H](NC(=O)[C@H](C)NC(=O)[C@@H]1CSSC[C@H](NC(=O)[C@@H](N)CCCCNC(=O)CC[C@H](NC(=O)CCCCCCCCCCCCCCCCCCC(=O)O)C(=O)O)C(=O)N[C@@H](CC(N)=O)C(=O)N[C@@H]([C@@H](C)O)C(=O)N[C@@H](C)C(=O)N[C@@H]([C@@H](C)O)C(=O)N1)[C@@H](C)O)C(=O)N1CCC[C@H]1C(=O)N[C@@H](CO)C(=O)N[C@@H](CO)C(=O)N[C@H](C(=O)N[C@@H](CC(N)=O)C(=O)N[C@H](C(=O)NCC(=O)N[C@@H](CO)C(=O)N[C@@H](CCC(=O)O)C(=O)N[C@H](C(=O)N[C@@H](Cc1ccc(O)cc1)C(N)=O)[C@@H](C)O)C(C)C)[C@@H](C)O
notes: also called compound 27
With B2, the “hAmylin-R funct. EC50” value in assay [1] came to 0.133 nM. In addition, in assay [2], the “Ratio hCT/hAmylin funct. (hCTR EC50 against hAmylin-R EC50)” value turned out to be 22.6 and the “hCTR funct. EC50” value came out at 3 nM.

B3: N^ε1-[(4S)-4-carboxy-4-(19-carboxynonadecanoylamino)butanoyl]-[Arg17,Pro21,Pro27,Lys35]-h-amylin (peptide)
peptide: K([γGlu-C20 diacid])CNTATCATQRLANFLRHSSPNFGAIPSSTNVGSKTY-NH2
modifications: disulfide 2-7; N-terminus assumed
SMILES: CC[C@H](C)[C@H](NC(=O)[C@H](C)NC(=O)CNC(=O)[C@H](Cc1ccccc1)NC(=O)[C@H](CC(N)=O)NC(=O)[C@@H]1CCCN1C(=O)[C@H](CO)NC(=O)[C@H](CO)NC(=O)[C@H](Cc1c[nH]cn1)NC(=O)[C@H](CCCNC(=N)N)NC(=O)[C@H](CC(C)C)NC(=O)[C@H](Cc1ccccc1)NC(=O)[C@H](CC(N)=O)NC(=O)[C@H](C)NC(=O)[C@H](CC(C)C)NC(=O)[C@H](CCCNC(=N)N)NC(=O)[C@H](CCC(N)=O)NC(=O)[C@@H](NC(=O)[C@H](C)NC(=O)[C@@H]1CSSC[C@H](NC(=O)[C@@H](N)CCCCNC(=O)CC[C@H](NC(=O)CCCCCCCCCCCCCCCCCCC(=O)O)C(=O)O)C(=O)N[C@@H](CC(N)=O)C(=O)N[C@@H]([C@@H](C)O)C(=O)N[C@@H](C)C(=O)N[C@@H]([C@@H](C)O)C(=O)N1)[C@@H](C)O)C(=O)N1CCC[C@H]1C(=O)N[C@@H](CO)C(=O)N[C@@H](CO)C(=O)N[C@H](C(=O)N[C@@H](CC(N)=O)C(=O)N[C@H](C(=O)NCC(=O)N[C@@H](CO)C(=O)N[C@@H](CCCCN)C(=O)N[C@H](C(=O)N[C@@H](Cc1ccc(O)cc1)C(N)=O)[C@@H](C)O)C(C)C)[C@@H](C)O
notes: also called compound 35
Consider B3, for which the “hAmylin-R funct. EC50” value in assay [1] is 0.364 nM. Besides, in assay [2], the “Ratio hCT/hAmylin funct. (hCTR EC50 against hAmylin-R EC50)” value is 15 and the “hCTR funct. EC50” value was determined as 5.46 nM.

B4: N^ε1-[2-[2-[2-[[(4S)-4-carboxy-4-(19-carboxynonadecanoylamino)butanoyl]amino]ethoxy]ethoxy]acetyl]-[Arg17,Pro21,Pro27]-h-amylin (peptide)
peptide: K([AEEA-γGlu-C20 diacid])CNTATCATQRLANFLRHSSPNFGAIPSSTNVGSNTY-NH2
modifications: disulfide 2-7; N-terminus assumed
SMILES: CC[C@H](C)[C@H](NC(=O)[C@H](C)NC(=O)CNC(=O)[C@H](Cc1ccccc1)NC(=O)[C@H](CC(N)=O)NC(=O)[C@@H]1CCCN1C(=O)[C@H](CO)NC(=O)[C@H](CO)NC(=O)[C@H](Cc1c[nH]cn1)NC(=O)[C@H](CCCNC(=N)N)NC(=O)[C@H](CC(C)C)NC(=O)[C@H](Cc1ccccc1)NC(=O)[C@H](CC(N)=O)NC(=O)[C@H](C)NC(=O)[C@H](CC(C)C)NC(=O)[C@H](CCCNC(=N)N)NC(=O)[C@H](CCC(N)=O)NC(=O)[C@@H](NC(=O)[C@H](C)NC(=O)[C@@H]1CSSC[C@H](NC(=O)[C@@H](N)CCCCNC(=O)COCCOCCNC(=O)CC[C@H](NC(=O)CCCCCCCCCCCCCCCCCCC(=O)O)C(=O)O)C(=O)N[C@@H](CC(N)=O)C(=O)N[C@@H]([C@@H](C)O)C(=O)N[C@@H](C)C(=O)N[C@@H]([C@@H](C)O)C(=O)N1)[C@@H](C)O)C(=O)N1CCC[C@H]1C(=O)N[C@@H](CO)C(=O)N[C@@H](CO)C(=O)N[C@H](C(=O)N[C@@H](CC(N)=O)C(=O)N[C@H](C(=O)NCC(=O)N[C@@H](CO)C(=O)N[C@@H](CC(N)=O)C(=O)N[C@H](C(=O)N[C@@H](Cc1ccc(O)cc1)C(N)=O)[C@@H](C)O)C(C)C)[C@@H](C)O
notes: also called compound 41
As for B4, the “hAmylin-R funct. EC50” value in assay [1] came out at 0.26 nM. Moreover, in assay [2], the “Ratio hCT/hAmylin funct. (hCTR EC50 against hAmylin-R EC50)” value came to 16.7 and the “hCTR funct. EC50” value came to 4.35 nM.

B5: N^ε1-[(4S)-4-carboxy-4-[[(4S)-4-carboxy-4-(19-carboxynonadecanoylamino)butanoyl]amino]butanoyl]-[Asp14,Arg17,Pro21,Pro27,Asp35]-h-amylin (peptide)
peptide: K([γGlu-γGlu-C20 diacid])CNTATCATQRLADFLRHSSPNFGAIPSSTNVGSDTY-NH2
modifications: disulfide 2-7; N-terminus assumed
SMILES: CC[C@H](C)[C@H](NC(=O)[C@H](C)NC(=O)CNC(=O)[C@H](Cc1ccccc1)NC(=O)[C@H](CC(N)=O)NC(=O)[C@@H]1CCCN1C(=O)[C@H](CO)NC(=O)[C@H](CO)NC(=O)[C@H](Cc1c[nH]cn1)NC(=O)[C@H](CCCNC(=N)N)NC(=O)[C@H](CC(C)C)NC(=O)[C@H](Cc1ccccc1)NC(=O)[C@H](CC(=O)O)NC(=O)[C@H](C)NC(=O)[C@H](CC(C)C)NC(=O)[C@H](CCCNC(=N)N)NC(=O)[C@H](CCC(N)=O)NC(=O)[C@@H](NC(=O)[C@H](C)NC(=O)[C@@H]1CSSC[C@H](NC(=O)[C@@H](N)CCCCNC(=O)CC[C@H](NC(=O)CC[C@H](NC(=O)CCCCCCCCCCCCCCCCCCC(=O)O)C(=O)O)C(=O)O)C(=O)N[C@@H](CC(N)=O)C(=O)N[C@@H]([C@@H](C)O)C(=O)N[C@@H](C)C(=O)N[C@@H]([C@@H](C)O)C(=O)N1)[C@@H](C)O)C(=O)N1CCC[C@H]1C(=O)N[C@@H](CO)C(=O)N[C@@H](CO)C(=O)N[C@H](C(=O)N[C@@H](CC(N)=O)C(=O)N[C@H](C(=O)NCC(=O)N[C@@H](CO)C(=O)N[C@@H](CC(=O)O)C(=O)N[C@H](C(=O)N[C@@H](Cc1ccc(O)cc1)C(N)=O)[C@@H](C)O)C(C)C)[C@@H](C)O
notes: also called compound 2
Consider B5, for which the “hAmylin-R funct. EC50” value in assay [1] stood at 0.182 nM. Further, in assay [2], the “Ratio hCT/hAmylin funct. (hCTR EC50 against hAmylin-R EC50)” value was 16.4 and the “hCTR funct. EC50” value was found to be 3 nM.

B6: N{Alpha-1}-[(4S)-4-carboxy-4-(19-carboxynonadecanoylamino)butanoyl]-[Glu14,Arg17,Pro21,Pro27,Lys34]-h-amylin (peptide)
peptide: {C20 diacid-γGlu}-KCNTATCATQRLAEFLRHSSPNFGAIPSSTNVGKNTY-NH2
modifications: disulfide 2-7
SMILES: CC[C@H](C)[C@H](NC(=O)[C@H](C)NC(=O)CNC(=O)[C@H](Cc1ccccc1)NC(=O)[C@H](CC(N)=O)NC(=O)[C@@H]1CCCN1C(=O)[C@H](CO)NC(=O)[C@H](CO)NC(=O)[C@H](Cc1c[nH]cn1)NC(=O)[C@H](CCCNC(=N)N)NC(=O)[C@H](CC(C)C)NC(=O)[C@H](Cc1ccccc1)NC(=O)[C@H](CCC(=O)O)NC(=O)[C@H](C)NC(=O)[C@H](CC(C)C)NC(=O)[C@H](CCCNC(=N)N)NC(=O)[C@H](CCC(N)=O)NC(=O)[C@@H](NC(=O)[C@H](C)NC(=O)[C@@H]1CSSC[C@H](NC(=O)[C@H](CCCCN)NC(=O)CC[C@H](NC(=O)CCCCCCCCCCCCCCCCCCC(=O)O)C(=O)O)C(=O)N[C@@H](CC(N)=O)C(=O)N[C@@H]([C@@H](C)O)C(=O)N[C@@H](C)C(=O)N[C@@H]([C@@H](C)O)C(=O)N1)[C@@H](C)O)C(=O)N1CCC[C@H]1C(=O)N[C@@H](CO)C(=O)N[C@@H](CO)C(=O)N[C@H](C(=O)N[C@@H](CC(N)=O)C(=O)N[C@H](C(=O)NCC(=O)N[C@@H](CCCCN)C(=O)N[C@@H](CC(N)=O)C(=O)N[C@H](C(=O)N[C@@H](Cc1ccc(O)cc1)C(N)=O)[C@@H](C)O)C(C)C)[C@@H](C)O
notes: also called compound 36
For B6, in assay [1], the “hAmylin-R funct. EC50” value was determined as 0.189 nM. For the same molecule, in assay [2], the “Ratio hCT/hAmylin funct. (hCTR EC50 against hAmylin-R EC50)” value was 6.8 and the “hCTR funct. EC50” value came out at 1.28 nM.

(Values after patent publication US20140087995A1 (published 2014).)
